# Laboratory results published in paper PMC6763467, “Structural insight into glucose repression of the mannitol operon” (Scientific Reports, 2019).
# T1: His-MtlR(E140S) (E. coli, UniProt P0AF10 1-195, E140S)
# T1 construct: Mannitol operon repressor MtlR of E. coli, made by site-directed mutagenesis of pET-HisMtlR; also called E140S single mutant
# T1 sequence: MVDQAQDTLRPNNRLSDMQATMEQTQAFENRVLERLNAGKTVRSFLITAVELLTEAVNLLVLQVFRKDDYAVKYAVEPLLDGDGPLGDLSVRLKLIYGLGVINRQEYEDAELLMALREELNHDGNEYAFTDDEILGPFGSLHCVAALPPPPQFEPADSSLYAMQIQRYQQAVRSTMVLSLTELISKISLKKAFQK
# T2: His-MtlR(A115W) (E. coli, UniProt P0AF10 1-195, A115W)
# T2 construct: Mannitol operon repressor MtlR of E. coli, made by site-directed mutagenesis of pET-HisMtlR; also called A115W mutant of His-tagged ecMtlR
# T2 sequence: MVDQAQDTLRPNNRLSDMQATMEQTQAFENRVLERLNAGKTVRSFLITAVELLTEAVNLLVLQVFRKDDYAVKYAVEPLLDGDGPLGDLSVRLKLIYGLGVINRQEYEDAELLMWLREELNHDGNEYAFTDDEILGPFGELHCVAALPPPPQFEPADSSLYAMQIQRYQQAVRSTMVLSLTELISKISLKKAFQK
# T3: His-MtlR(L112W) (E. coli, UniProt P0AF10 1-195, Leu112 was mutated to Trp)
# T3 construct: Mannitol operon repressor MtlR of E. coli, made by site-directed mutagenesis of pET-HisMtlR; also called Leu112 mutated to Trp
# T3 sequence: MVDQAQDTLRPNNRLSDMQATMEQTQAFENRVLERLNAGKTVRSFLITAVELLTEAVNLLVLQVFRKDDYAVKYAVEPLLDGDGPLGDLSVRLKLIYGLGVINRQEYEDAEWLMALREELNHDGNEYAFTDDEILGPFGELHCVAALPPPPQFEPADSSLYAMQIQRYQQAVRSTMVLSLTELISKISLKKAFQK
# T4: His-MtlR(E108S) (E. coli, UniProt P0AF10 1-195, E108S)
# T4 construct: Mannitol operon repressor MtlR of E. coli, made by site-directed mutagenesis of pET-HisMtlR; also called E108S single mutant
# T4 sequence: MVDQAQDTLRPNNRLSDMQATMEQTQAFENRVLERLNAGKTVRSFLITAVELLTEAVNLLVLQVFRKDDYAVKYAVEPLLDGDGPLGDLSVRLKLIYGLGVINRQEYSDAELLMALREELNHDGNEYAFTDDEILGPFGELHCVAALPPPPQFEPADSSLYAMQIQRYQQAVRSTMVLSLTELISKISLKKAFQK
# B1: E. coli MtlR fused with His6-tag (ecHisMtlR), wild type (natural protein)
# chain: MVDQAQDTLRPNNRLSDMQATMEQTQAFENRVLERLNAGKTVRSFLITAVELLTEAVNLLVLQVFRKDDYAVKYAVEPLLDGDGPLGDLSVRLKLIYGLGVINRQEYEDAELLMALREELNHDGNEYAFTDDEILGPFGELHCVAALPPPPQFEPADSSLYAMQIQRYQQAVRSTMVLSLTELISKISLKKAFQK
# notes: Mannitol operon repressor MtlR of E. coli (cloned from genomic DNA of MG1655, K-12); ecHisMtlR is about 23 kDa with the tag; probably the whole protein (about 23 kDa with tag); Homodimer by SEC-MALS; also called wild-type His-MtlR; ecMtlR
# Legend:
# [1] = molecular target: B1; assay: SEC; gel filtration chromatography of purified MtlR and HPr from E. coli and V. vulnificus (Supplementary Fig. 4); conditions: both partners purified
# [2] = molecular target: T1, His-MtlR(E140S); assay: pull-down; His-MtlR (200 μg) mixed with HPr (200 μg) in 20 mM Tris-HCl pH 7.5, 50 mM NaCl, 2 mM β-mercaptoethanol, 5% glycerol; Talon metal affinity chromatography, 3 washes with 10 mM imidazole, elution with 150 mM imidazole; SDS-PAGE, Coomassie; conditions: both partners purified
# [3] = molecular target: T2, His-MtlR(A115W); assay: as above; conditions: both partners purified
# [4] = molecular target: T3, His-MtlR(L112W); assay: as above; conditions: both partners purified
# [5] = molecular target: T4, His-MtlR(E108S); assay: pull-down; His-MtlR (200 μg) mixed with 20 μl of EI-overproducing cell lysate, 200 μg of HPr, 2 mM MgCl2 and 50 μl of Talon resin, in the absence or presence of 2 mM PEP; SDS-PAGE, Coomassie; conditions: both partners purified
# [6] = molecular target: the molecule itself; assay: SEC-MALS; Superdex 200 increase 5/150 GL, binding buffer as mobile phase, 0.2 ml/min; HisMtlR alone (40 μg) and in complex with HPr (60 μg); concentration by refractive index
# [7] = molecular target: T4, His-MtlR(E108S); assay: MST; Monolith NT.115; serial dilutions of MtlR variants mixed 1:1 with NT-647-labelled HPr; 20 mM Tris-HCl pH 7.5, 50 mM NaCl, 2 mM β-mercaptoethanol, 0.05% BSA, 0.05% Tween-20, 5% glycerol; conditions: both partners purified
# [8] = molecular target: B1; assay: as above; conditions: both partners purified
# [9] = molecular target: T1, His-MtlR(E140S); assay: as above; conditions: both partners purified
binder,measurement,setting,value
"E. coli histidine phosphocarrier protein HPr (dephosphorylated, untagged) (natural protein, Histidine phosphocarrier protein HPr of E. coli, 9 kDa; Untagged; probably the whole protein (9 kDa); also called ecHPr; source: E. coli, overexpressed, purified (MonoQ, Superdex 75); for the complex overexpressed in E. coli GI698 harboring pSP100 and co-purified with MtlR) not shown",binding result,[1],binds
same,binding result,[2],binds
same,binding result,[3],binds
same,binding result,[4],binds
same,binding result,[5],binds
B1,stoichiometry N,[6],2
"E. coli HPr labelled with the dye NT-647 (natural protein, dye NT-647 coupled by N-hydroxysuccinimide (NHS) to lysine residues, Histidine phosphocarrier protein HPr of E. coli, 9 kDa; Same protein as m2, fluorescently labelled for microscale thermophoresis; also called labeled HPr; source: E. coli, overexpressed, purified (MonoQ, Superdex 75), then labelled with NT-647-NHS) not shown",Kd,[7],1420 ± 80 nM
same,Kd,[8],~21 nM
same,Kd,[9],1530 ± 110 nM
